From the supplement of paper PMC10567573

B1: ELF3 (parent)
chain: RLVYKFGKNSSGWKEEEVLQSRN
B2: TRIM55 (parent)
chain: YLPTRGGTTMASGGRFRCPSCRHE

Variants of: B1
Experiment: protein stability index of a GFP-peptide fusion (GPS, HEK-293T) (PSI 1-6); higher = more stable
Conditions: c terminus: native
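Note: lentivirally expressed fusions sorted by FACS into six bins by GFP to DsRed ratio, PSI derived from sequencing read proportions per bin multiplied by bin number.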

Variant	protein stability index
Q20A	1.89
Q20G	3.4
Q20Y	1.79
Q20E	3.52
Q20V	1.71
Q20S	2.4
Q20K	1.25
Q20I	1.71
Q20M	2.06
Q20C	2.22
Q20D	3.28
Q20N	3.32
Q20T	1.58
Q20P	2.38
Q20L	2.19
Q20H	1.76
Q20W	1.67
R22D	4.7
R22F	3.01
R22H	3.53
R22A	2.85
R22N	3.96
R22Q	3.02
R22K	3.75
R22P	3.62
R22T	3.51

Variant	protein stability index
R22Y	2.06
R22L	2.56
R22M	2.72
R22I	3.42
R22C	2.35
R22S	2.92
S10Y	1.56
S10H	2.56
S10R	1.18
S10I	1.66
S10K	2.23
S10A	2.64
S10M	1.9
S10C	2.55
S10E	2.86
S10T	3.02
S10P	2.1
S10F	1.34
S10D	3.25
S10Q	2.51
S10G	2.11
S10N	2.1
S11K	1.6
S11C	1.84
S11E	3.01
S11V	3.33

Variant	protein stability index
S11I	1.54
S11R	2.05
S11T	2.83
S11D	3.33
S11N	1.89
S11H	1.89
S11L	1.78
S11Y	2.21
S11F	1.09
S11P	2.79
S11M	1.73
L19F	1.49
L19Q	3.85
L19Y	1.52
L19M	2.43
L19K	3.02
L19I	2.67
L19G	3.19
L19N	3.65
L19T	3.84
L19P	3.12
L19H	2.98
L19A	3.3
L19C	2.33
L19V	2.55
L19R	2.51

Variant	protein stability index
L19D	4.52
L19E	4.05
W13C	4.09
W13D	4.86
W13S	3.78
W13A	4.73
W13V	3
W13Q	3.29
W13E	4.85
W13F	3.03
W13Y	2.96
W13M	3.91
W13G	4.27
W13T	4.2
W13K	3.85
W13R	3.74
W13L	4.02
W13H	4.28
W13I	3.91
W13P	4.45
W13N	3.67
F6W	2.12
F6S	3.28
F6Y	2.45
F6T	3.5
F6R	3.06

Variant	protein stability index
F6V	3.89
G7V	1.49
G7H	1.8
G7T	2.31
G7I	1.46
G7K	1.9
G7N	2.64
G7S	2.67
G7A	1.89
G7M	1.81
G7P	2.31
G7Y	2.41
G7W	3.57
G7D	4.11
G7Q	2.5
G7R	2.29
G7E	2.94
E16Y	2.91
E16I	3.06
E16H	1.25
E16G	1.5
E16K	2.46
E16V	1.04
E16D	2.15
E16Q	1.25
E16F	3.9

Variant	protein stability index
E16C	1.94
E16L	3.56
E16N	2.51
G12I	1.76
G12K	1.69
G12A	2.37
G12V	1.79
G12L	3.23
G12P	2.46
G12E	2.98
G12C	2.05
G12N	1.98
G12H	2.02
G12W	1.88
G12Y	2.57
G12S	2.5
G12Q	1.95
G12T	1.87
G12D	3.19
G12F	1.82
K8M	1.38
K8Y	1.42
K8H	2.26
K8S	2.44
K8D	3.36
K8E	2.97

Variant	protein stability index
K8C	2.85
K8N	2.46
K8R	1.31
K8V	1.91
K8T	2.62
K8G	2.49
K8I	2.14
K8P	2.25
K8A	2.77
K8L	1.92
K8F	1.86
S21I	2.41
S21C	2.39
S21N	2.49
S21T	2.1
S21K	2.95
S21Q	3.82
S21F	1.94
S21D	3.56
S21M	2.31
S21Y	2.72
S21P	3.39
S21V	1.82
S21E	3.19
S21L	3.31
S21G	2.26

Variant	protein stability index
S21A	2.12
N23I	1.8
N23T	2.37
N23S	2.51
N23F	2.86
N23Y	2.31
N23W	2.13
N23L	3.28
N23P	3.22
N23D	2.7
N23C	1.7
N23E	3.68
N23G	2
N23V	2.62
N23K	3.52
N23Q	1.87
N23M	1.81
N23A	2.28
E17C	2.62
E17S	1.13
E17K	1.3
E17N	1.6
E17P	2.22
E17T	1.51
E17I	2.02
E17V	1.98

Variant	protein stability index
E17A	2.06
E17F	1.75
E17M	2.27
E17Y	2.98
E17H	1.11
E17D	1.75
E17Q	2.09
E17G	1.93
V18M	1.84
V18E	3.17
V18N	2.59
V18R	2.29
V18K	2.94
V18C	2.44
V18H	3.01
V18G	2.9
V18S	2.68
V18T	2.16
V18D	3.45
V18Q	2.35
V18Y	1.25
V18F	1.73
V18A	2.49
V18P	2.81
V18L	2.08
V18I	2.32

Variant	protein stability index
V18W	1.62
N9L	2.59
N9F	1.98
N9H	1.68
N9G	1.9
N9E	3.08
N9K	1.97
N9Q	1.87
N9S	2.22
N9M	4.34
N9T	1.73
N9V	2.08
N9Y	1.25
N9A	1.7
N9P	2.33
N9R	2.91
N9D	3.19
K14M	2.88
K14H	1.41
K14D	3.25
K14T	2.32
K14P	2.58
K14V	2.25
K14A	2.02
K14Q	3
K14F	2.49

Variant	protein stability index
K14I	2.25
K14R	2.43
K14C	2.12
K14S	2.89
K14N	1.92
K14L	2.7
K14Y	2.28
K14E	3.31
E15A	1.43
E15W	1.86
E15F	3
E15H	2.81
E15D	1.9
E15I	1.55
E15K	3.27
E15C	2.49
E15V	2.49
E15N	1.94
E15G	1.76
E15Q	1.76

Variants of: B2
Experiment: as above
Conditions: c terminus: a fixed tail appended

Variant	protein stability index
R15L	1.81
R15S	1.65
R15F	2.76
G13M	1.96
G13F	2.39
G13T	1.88
G13H	2.62
A11T	2.46
A11H	1.83
A11E	2
R22I	2.4
R22W	2.01
R22G	2.79
R22N	2.4
R22A	2.59
R22E	4.06
C18H	2.94
C18K	3.34
T8K	2.1
T8S	1.14
S12E	2.09
E24H	1.47
Y1I	2.52
C21T	3.14
C21I	3.09
C21Y	2.35
C21N	3.96

Variant	protein stability index
F16T	2.98
F16S	3.94
T9A	2.77
T9Q	1.11
P3L	1.32
S20N	1.93
S20D	1.98
M10Q	2.03
M10A	2.85
M10P	2.5
G6I	1.04
G7Y	2.17
G7K	1.01
G7I	1.45
L2M	1.93
L2I	2.22
T4H	1.19
T4C	3.98
G14T	2.89
G14Y	1.69
R17C	1.6
R17K	1.48
R17S	2.9
P19S	2.49
P19Q	3.5
P19G	2.34
P19E	2.01
